The target of the data set is GST-KRT19 fusion protein (UniProt P08727).
Sequence of UniProt P08727 (P08727 whole entry, the tested form may be a part): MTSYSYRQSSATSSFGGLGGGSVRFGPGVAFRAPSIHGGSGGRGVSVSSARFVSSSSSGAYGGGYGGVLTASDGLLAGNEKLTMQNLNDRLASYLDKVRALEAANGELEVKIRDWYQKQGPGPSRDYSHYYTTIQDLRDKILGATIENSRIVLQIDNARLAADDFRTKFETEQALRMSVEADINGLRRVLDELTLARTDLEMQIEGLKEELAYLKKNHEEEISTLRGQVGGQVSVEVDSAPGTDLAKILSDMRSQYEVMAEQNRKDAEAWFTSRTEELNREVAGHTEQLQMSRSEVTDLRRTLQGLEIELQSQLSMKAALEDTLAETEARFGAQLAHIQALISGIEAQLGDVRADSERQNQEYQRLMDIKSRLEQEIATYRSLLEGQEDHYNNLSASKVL

Take HA-Akt protein: the “in vitro kinase assay ([gamma-32P]ATP, SDS-PAGE, autoradiography)” value is recorded as “Akt mediated Ser35 phosphorylation of KRT”.

The values are drawn from patent US20140242069.
